Experimental data reported in publication PMC6273323 (2016).
Non-standard residues stand in square brackets, D forms with d. No end group written: not given here. Phe(4-F) = N[C@@H](Cc1ccc(F)cc1)C(=O)O

Biological target: T1, DF*NNN fluorinated iNOS peptide
T1 chain: D[Phe(4-F)]NNN
Experiment: SPR

B1: SPSB2 (protein)
chain: MGQTALARGSSSTPTSQALYSDFSPPEGLEELLSAPPPDLVAQRHHGWNPKDCSENIDVKEGGLCFERRPVAQSTDGVRGKRGYSRGLHAWEISWPLEQRGTHAVVGVATALAPLQADHYAALLGSNSESWGWDIGRGKLYHQSKGLEAPQYPAGPQGEQLVVPERLLVVLDMEEGTLGYSIGGTYLGPAFRGLKGRTLYPSVSAVWGQCQVRIRYMGERRVEEPQSLLHLSRLCVRHALGDTRLGQISTLPLPPAMKRYLLYK
Kd: 3 µM
